What is called IC50 is the concentration at which inhibition is half-maximal. Read a high IC50 as weaker potency.

Where no end group is shown, it is not given here. The star is where a group is joined. Biotin = O=C1N[C@H]2[C@H](CS[C@H]2CCCCC(=O)*)N1

The labels stand for the following.
B1: biotinylated 24-mer GRIP1 peptide (Biotinyl-GSTHGTSLKEKHKILHRLLQDSSS-NH2) (peptide)
peptide: Biotin-GSTHGTSLKEKHKILHRLLQDSSS-NH2
SMILES: CC[C@H](C)[C@H](NC(=O)[C@H](CCCCN)NC(=O)[C@H](Cc1c[nH]cn1)NC(=O)[C@H](CCCCN)NC(=O)[C@H](CCC(=O)O)NC(=O)[C@H](CCCCN)NC(=O)[C@H](CC(C)C)NC(=O)[C@H](CO)NC(=O)[C@@H](NC(=O)CNC(=O)[C@H](Cc1c[nH]cn1)NC(=O)[C@@H](NC(=O)[C@H](CO)NC(=O)CNC(=O)CCCC[C@@H]1SC[C@@H]2NC(=O)N[C@@H]21)[C@@H](C)O)[C@@H](C)O)C(=O)N[C@@H](CC(C)C)C(=O)N[C@@H](Cc1c[nH]cn1)C(=O)N[C@@H](CCCNC(=N)N)C(=O)N[C@@H](CC(C)C)C(=O)N[C@@H](CC(C)C)C(=O)N[C@@H](CCC(N)=O)C(=O)N[C@@H](CC(=O)O)C(=O)N[C@@H](CO)C(=O)N[C@@H](CO)C(=O)N[C@@H](CO)C(N)=O
notes: Synthetic (Mimotopes #814201), immobilized on a streptavidin coated SA-chip; also called biotinylated GRIP1 peptide; immobilized GRIP1 peptide
B2: (His)6ERα-LBD301-553 (receptor, UniProt P03372 301-553, looked up)
chain: SKKNSLALSLTADQMVSALLDAEPPILYSEYDPTRPFSEASMMGLLTNLADRELVHMINWAKRVPGFVDLTLHDQVHLLECAWLEILMIGLVWRSMEHPGKLLFAPNLLLDRNQGKCVEGMVEIFDMLLATSSRFRMMNLQGEEFVCLKSIILLNSGVYTFLSSTLKSLEEKDHIHRVLDKITDTLIHLMAKAGLTLQQQHQRLAQLLLILSHIRHMSNKGMEHLYSMKCKNVVPLYDLLLEMLDAHRLHAPT
notes: Control protein, expressed in E. coli, purified by Ni-NTA and size exclusion; Tested alone, after preincubation with E2 (10 µM) and with the antagonist BA31257; also called ER-LBD; not shown: (His)6 tag

Test [1] concerns the target biotinylated 24-mer GRIP1 peptide (Biotinyl-…-NH2) (mouse). Description: Biacore SPR, biotinylated peptide on streptavidin SA-chip, RORα-LBD injected. A general note: SPR reads the build-up and loss of mass on a sensor chip optically.
In test [2] the target is T1, (His)6RORa-LBD304-556 (Homo sapiens, UniProt P35398).
T1 construct: Crystals are obtained for the construct (His)6RORa-LBD304-556 and diffraction data are collected to 1.88 Å; 6xHis (N); made in house; host or cells: Sf9 insect cells (baculovirus)
T1 sequence (P35398 304-556 isoform P35398-1): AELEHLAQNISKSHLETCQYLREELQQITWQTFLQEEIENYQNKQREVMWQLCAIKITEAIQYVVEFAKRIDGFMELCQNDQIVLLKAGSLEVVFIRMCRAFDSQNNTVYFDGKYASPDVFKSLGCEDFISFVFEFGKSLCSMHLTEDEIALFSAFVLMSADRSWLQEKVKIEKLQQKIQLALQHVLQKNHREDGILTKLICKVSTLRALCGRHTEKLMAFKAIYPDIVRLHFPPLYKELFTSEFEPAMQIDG
Kind of test: X-ray crystallography of (His)6RORa-LBD304-556 (ligand in the ligand binding pocket). The note with it: 1.88 Å diffraction data. The source says: Crystals are obtained for the construct (His)6RORa-LBD304-556 and diffraction data are collected to 1.88 Å at the synchrotron (SNBL, ESRF Grenoble). The structure is solved ab initio with a Hg-derivative.
The excellent fit to the electron density allows the identification of the ligand to be cholesterol. […] Based on the X-ray structure, proposals are made for cholesterol derivatives, and in particular cholesterol sulfate is proposed as a ligand with a higher affinity to RORa than cholesterol, because of the electrostatic interactions with two Arg-side chains at the hydrophilic end of the LBP. Confirmation of the presence of cholesterol and comparative binding studies between cholesterol and cholesterol sulfate are further achieved by mass spectrometry on construct (His)6RORa-LBD269-556.

The target in test [3] is T2, (His)6RORa-LBD269-556 (Homo sapiens, UniProt P35398).
T2 construct: Extraction is performed by mixing 2 ml of a solution containing (His)6RORa-LBD269-556 at 4.6 mg/ml; made in house; host or cells: Sf9 insect cells (baculovirus)
T2 sequence (P35398 269-556 isoform P35398-1): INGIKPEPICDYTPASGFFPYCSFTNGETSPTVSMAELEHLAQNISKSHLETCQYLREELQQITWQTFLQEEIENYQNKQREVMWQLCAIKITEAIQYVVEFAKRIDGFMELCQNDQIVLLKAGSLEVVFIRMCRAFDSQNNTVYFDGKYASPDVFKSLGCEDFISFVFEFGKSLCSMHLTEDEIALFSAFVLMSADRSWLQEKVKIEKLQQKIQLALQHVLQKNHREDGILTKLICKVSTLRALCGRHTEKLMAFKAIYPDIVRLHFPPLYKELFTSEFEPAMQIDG
Kind of test: GC-MS of the hexane extract of (His)6RORa-LBD269-556 (identification of bound ligands). The following applies: GC/MS after BSTFA derivatization, protein from Sf9 cells. How it is done:
Extraction is performed by mixing 2 ml of a solution containing (His)6RORa-LBD269-556 at 4.6 mg/ml and 2 ml of hexane and shaking for 1 minute. The aqueous phase is extracted a second time using the same procedure. The organic phases are pooled and evaporated to dryness under nitrogen. The extract is dissolved in […] pyridine. An aliquot of 10 ml is derivatized with 5 ml N,O-bistrimethylsilyl-trifluoroacetamide (BSTFA) at 60° C. for 30 min. Reference compounds cholesterol and 7-dehydrocholesterol (Sigma) are derivatized following the same procedure. For structure elucidation, the underivatized and the derivatized sample and reference compounds are analyzed by GC/MS, respectively.
The GC/MS system consists of a Carlo Erba Mega 5160 gas chromatograph, which is coupled to a Finnigan TSQ-700 mass spectrometer equipped with an electron impact ion source (EI). The ion source is heated to a temperature of 150° C., filament current is 20 mA, electron multiplier voltage 1000V, and the conversion dynode is set to 15 kV. The scan range is m/z 100-700 with a scan time of 2 seconds. The gas chromatographic separation is performed on a 10 m×0.2 mm Duran glass column coated with a […] film of SDPE-08 using hydrogen as carrier gas at a constant flow rate of 2.5 ml/min. The temperature program is set to 100-330° C. at a rate of 6° C./min. The GC/MS interface temperature is set to 350° C. […]

The target of test [4] is B2. Description: Biacore SPR, biotinylated peptide on SA-chip, ER-LBD without added ligand (basal).
The target of test [5] is B2. Description: Biacore SPR, biotinylated peptide on SA-chip, ER-LBD preincubated with E2 (10 µM).
Test [6] concerns the target (His)6RORα-LBD269-556 (human) (UniProt P35398). Kind of test: Biacore SPR competition: free 20-mer peptide inhibits binding of RORα-LBD to the immobilized 24-mer GRIP1 peptide.
In test [7] the target is B1. Kind of test: Biacore SPR, ER-LBD preincubated with E2 (10 µM) against ER-LBD without ligand.
In test [8] the target is T3, ERα-LBD / GRIP1 peptide interaction (Homo sapiens, UniProt P03372).
T3 construct: Control proteins (His)6ERα-LBD301-553 and (His)6cytohesin-1 are cloned and expressed in E. coli; (His)6; made in house; host or cells: E. coli
T3 sequence (P03372 301-553): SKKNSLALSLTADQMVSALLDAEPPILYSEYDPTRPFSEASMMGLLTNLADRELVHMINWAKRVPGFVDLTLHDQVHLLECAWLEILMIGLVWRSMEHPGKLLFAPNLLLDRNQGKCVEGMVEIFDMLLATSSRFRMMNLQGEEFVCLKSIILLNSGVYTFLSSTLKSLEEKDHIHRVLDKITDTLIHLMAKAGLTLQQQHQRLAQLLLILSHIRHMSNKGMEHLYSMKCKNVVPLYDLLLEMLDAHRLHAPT
Description: Biacore binding assay of (His)6ERa-LBD301-553 to immobilized GRIP1 peptide (positive control). The following applies: basal level, no ligand; read-out: apparent Kd of ERa-LBD binding to immobilized GRIP1 peptide.

Take “(His)6RORα-LBD269-556 (from UniProt P35398 269-523) (receptor)”: in test [1], the Kd is 241 nM. `CC(C)CCC[C@@H](C)[C@H]1CC[C@H]2[C@@H]3CC=C4C[C@@H](O)CC[C@]4(C)[C@H]3CC[C@]12C` [Cholesterol]: the “ligand found in the LBP by electron density” value in test [2] is listed as “unambiguous identification of the ligand as cholesterol”. Moreover, in test [3], the “SIC-% of compound in the extract of (His)6RORa-LBD269-556” value is on record as 77.4%. For `CC(C)CCC[C@@H](C)[C@H]1CC[C@H]2C3=CC=C4C[C@@H](O)CC[C@]4(C)[C@H]3CC[C@]12C` [7-Dehydrocholesterol], the “SIC-% of compound in the extract of (His)6RORa-LBD269-556” value in test [3] is recorded as 18.3%. With B1, the Kd in test [4] is about 450 nM; in test [5], about 70 nM.

In the case of GTSLKEKHKILHRLLQDSSS (not fully specified) [non-biotinylated 20-mer GRIP1 peptide …], the IC50 in test [6] was found to be 3000 nM.

As to B2, the “fold increase of binding affinity” value in test [7] worked out at 6.5 fold.

B3: (His)6ERa-LBD301-553: control protein, His-tagged ERα ligand binding domain 301-553, cloned and expressed in E. coli (protein)
chain: SKKNSLALSLTADQMVSALLDAEPPILYSEYDPTRPFSEASMMGLLTNLADRELVHMINWAKRVPGFVDLTLHDQVHLLECAWLEILMIGLVWRSMEHPGKLLFAPNLLLDRNQGKCVEGMVEIFDMLLATSSRFRMMNLQGEEFVCLKSIILLNSGVYTFLSSTLKSLEEKDHIHRVLDKITDTLIHLMAKAGLTLQQQHQRLAQLLLILSHIRHMSNKGMEHLYSMKCKNVVPLYDLLLEMLDAHRLHAPT
modifications: left off: small tags and cut ends
Turning to B3, the Kd in test [8] is about 450 nM.

Source of the values: patent US20050176062A1, “Method of identifying ligands for nuclear receptors” (priority 2002, published 2005).
